Assay results reported in article PMC8115922 (Science Advances, 2021).

T1: SAMD1-WH(27-105) (Homo sapiens, UniProt Q6SPF0 27-105)
T1 sequence: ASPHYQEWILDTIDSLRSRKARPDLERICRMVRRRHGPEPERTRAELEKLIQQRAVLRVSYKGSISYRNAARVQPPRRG

B1: WT SAMD1-SAM (construct of the solution experiments not stated) (domain or fragment, human, UniProt Q6SPF0 462-530, looked up)
chain: WTVMDVVEYFTEAGFPEQATAFQEQEIDGKSLLLMQRTDVLTGLSIRLGPALKIYEHHIKVLQQGHFED
B2: 13-bp CpG DNA (dsDNA)
DNA 1: ACCTGCGCACCAT
DNA 2: ATGGTGCGCAGGT

Assays:
SEC + native MS = biological target: the molecule itself; test: SEC + native MS
SAMD1-WH(27-105) = biological target: T1, SAMD1-WH(27-105); test: X-ray crystallography

Row | Binder | stoichiometry N (SEC + native MS) | binding result (SAMD1-WH(27-105))
1 | B1 | 5 | 
2 | B2 |  | binds
